Tests used:
[1] = molecular target: T1, recombinant protein comprising the human ACVR2A extracellular domain (ECD) fused to the human IgG1 Fc region (human, UniProt P27037 20-135); experiment: SPR, Biacore 8000 (2nd test); ACVR2A-Fc captured by anti-human Fc, Fab injected
T1 construct: extracellular domain; also called ACVR2A-Fc; ACVR2A-FC; not shown: human IgG1 Fc region
Excerpt: (§1) 2.2 Surface Plasmon resonance (SPR) measurements and affinity analysis by anti-human Fc capture format. After affinity panning, output-3 (03) of CDRH1 library were screened for binding ability by Fab ELISA and followed by NGS DNA sequencing. Based on binding Elisa and sequence abundance from NGS data, 11 clones were select for SPR analysis. Approximately 100-800 resonance units (RU) of antigen ACVR2A, was captured by anti-human Fc immobilized on a channel of a CM5 chip with an activated amine group. After immobilization, Fab antibodies were injected into the channels at 25° C. in HBS-EP buffer, with a flow rate of 30 μL/min, 1 min. When the data collection was finished in each cycle, the sensor surface was regenerated using 80 mM NaOH with a flow rate of 30 μL/min, 15 sec and reused chip in next cycle. After subtraction of reference surface and buffer injection, curve was locally fitted with BIA evaluation version 4.1 using a 1:1 Langmuir binding mode.
(§2) The affinity of selected 11 anti-ACVR2A monoclonal antibody clones were determined on Biacore®3000 and Biacore®8000 as shown in Table 4 below.

[2] = molecular target: T1, recombinant protein comprising the …; experiment: SPR, Biacore 3000 (1st test); ACVR2A-Fc captured by anti-human Fc, Fab injected
Excerpt: as §1, §2

[3] = molecular target: T1, recombinant protein comprising the …; experiment: SPR, Biacore 3000 (1st test); ACVR2A-Fc captured by anti-human Fc, Fab injected; 1st test (Biacore 3000)
Excerpt: as §1, §2

T1 sequence (P27037 20-135): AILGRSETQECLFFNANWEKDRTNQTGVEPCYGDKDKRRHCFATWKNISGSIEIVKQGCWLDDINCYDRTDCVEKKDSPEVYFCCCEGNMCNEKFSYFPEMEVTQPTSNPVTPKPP

Kd [1]: 5.35 nM | koff [1]: 0.00257 s⁻¹ | kon [1]: 481000 M⁻¹ s⁻¹ | Kd [2]: 5.29 nM | koff [2]: 0.00227 s⁻¹ | kon [3]: 429000 M⁻¹ s⁻¹
B1: clone A (Fab) (Fab, V domains shown)
VH: QVQLVQSGAEVKKPGSSVKVSCKASGGQFYHSRISWVRQAPGQGLEWMGGIIPIYGTANYAQKFQGRVTITADESTSTAYMELSSLRSEDTAVYYCVKDLTWTNLGLDIWGQGTMVTVSS
VL: EIVMTQSPSSLSASVGDTVTITCRASQGVSRWLAWYQQKPGKAPRLLIYAASSLHSGVPSRFSGSGSGTHFTLTISSLQPEDFATYFCQQSYSTPFTFGPGTKLEIK
notes: Fab made in E. coli TG1 and purified on Ni-NTA
